Experiment [1] has as its target T1, surface-immobilized biotinylated microtubules (pig, UniProt Q2XVP4 1-451; Q767L7 1-444, biotin (site not stated) | biotin (site not stated)). Description: TIRF microscopy, fluorescence intensity of GFP-tagged MAP on microtubules; biotinylated MTs held on a streptavidin-coated coverslip; MAP titrated in BRB80 (80 mM PIPES pH 6.8, 1 mM EGTA, 2 mM MgCl2; about 100 mM salt) with 1 mg/mL casein, 0.5% pluronic acid, no motors or ATP; intensity fit to the Langmuir isotherm. The conditions noted are these: both partners purified.

Experiment [2] concerns the target T1, surface-immobilized biotinylated …. Description: cell-based or functional assay.

Broadly, the Kd is the equilibrium constant for the complex coming apart.

B1: full-length (FL) human MAP9 (GFP::Human MAP9::strepII) (natural protein, UniProt Q49MG5 1-647, looked up)
chain: MSDEVFSTTLAYTKSPKVTKRTTFQDELIRAITARSARQRSSEYSDDFDSDEIVSLGDFSDTSADENSVNKKMNDFHISDDEEKNPSKLLFLKTNKSNGNITKDEPVCAIKNEEEMAPDGCEDIVVKSFSESQNKDEEFEKDKIKMKPKPRILSIKSTSSAENNSLDTDDHFKPSPRPRSMLKKKSHMEEKDGLEDKETALSEELELHSAPSSLPTPNGIQLEAEKKAFSENLDPEDSCLTSLASSSLKQILGDSFSPGSEGNASGKDPNEEITENHNSLKSDENKENSFSADHVTTAVEKSKESQVTADDLEEEKAKAELIMDDDRTVDPLLSKSQSILISTSATASSKKTIEDRNIKNKKSTNNRASSASARLMTSEFLKKSSSKRRTPSTTTSSHYLGTLKVLDQKPSQKQSIEPDRADNIRAAVYQEWLEKKNVYLHEMHRIKRIESENLRIQNEQKKAAKREEALASFEAWKAMKEKEAKKIAAKKRLEEKNKKKTEEENAARKGEALQAFEKWKEKKMEYLKEKNRKEREYERAKKQKEEETVAEKKKDNLTAVEKWNEKKEAFFKQKEKEKINEKRKEELKRAEKKDKDKQAINEYEKWLENKEKQERIERKQKKRHSFLESEALPPWSPPSRTVFAKVF
notes: human MAP9, full length; also called FL MAP9; ASAP; source: E. coli Rosetta (DE3), purified (Strep-Tactin XT; for structural studies also heparin HP and Superdex 200); not shown: GFP, N-terminal, kept
As to B1, the Kd in experiment [1] was 61 nM. The “depolymerization rate of MTs after removing free tubulin and GTP, with MAP9 kept in the chamber” value in experiment [2] is 6 fold.

The record behind these values is paper doi:10.1101/2025.11.17.688911, “Structure and mechanism of microtubule stabilization and motor regulation by MAP9” (bioRxiv, 2025).
